Measurements from PMC11750923, “High-affinity ssDNA aptamer and chemiluminescent aptasensor for TIMP-1 detection in human serum”.

Molecular target: TIMP-1 (tissue inhibitor of metalloproteinases 1) (human, UniProt P01033 24-207)
Test: BLI; DPBS + 0.025% Tween 20; kon 1.30e6 M-1 s-1, koff 5.36e-4 s-1; 1:1 with mass transport; DPBS (138 mM NaCl, 2.67 mM KCl, 8.1 mM Na2HPO4, 1.47 mM KH2PO4, 1 mM CaCl2, 0.5 mM MgCl2); BLI with 0.025% Tween 20; pH and temperature not stated
Details: protein: commercial; tags: His; label: biotin (BLI); hairpin

TIMP-1 (tissue inhibitor of metalloproteinases 1), sequence (P01033 24-207): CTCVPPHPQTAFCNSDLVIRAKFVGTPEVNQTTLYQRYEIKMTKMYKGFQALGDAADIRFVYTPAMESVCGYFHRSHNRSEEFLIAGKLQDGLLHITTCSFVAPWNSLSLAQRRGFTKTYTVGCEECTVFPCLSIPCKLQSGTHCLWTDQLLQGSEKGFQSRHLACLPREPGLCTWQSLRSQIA

B1: Apt-4 (ssDNA)
DNA: CACGCATAGCGCCCCAACCCCAGTCGATGAAATTGCGTCGCGGGTGCCTATGCGTG
Binder B1 has a Kd of 0.41 nM.
